One molecule from patent US8911422B2, “Micro-needle device” (Hisamitsu Pharmaceutical Co., Inc., priority 2010, dated 2014) can be followed below.

In the series the test system is rats. The series is described as follows: in vivo injection with micro-needle device (Example 2), availability. Also on record: species or system rat. The note with it: coating range 200 μm. As to the method: A micro-needle device similar to that of Example 1 was used to perform in vivo injection (rats) to determine availability. Here, 14C-OVA was coated on each of the micro-needles, and a coating range thereof was 200 μm in height including the top of the micro-needle concerned (that is, the range H=200 μm in FIG. 3 (c)). The 14C-OVA coated on the micro-needle device was about 100 μg in total, and pullulan, that is, a coating carrier, was about 100 μg in total.
On injection, used was a spring impact-type applicator capable of giving an impact due to the elastic energy of 0.4 J/cm^2 to the back face of the micro-needle device. The elastic energy of the spring impact-type applicator is determined by the above-described formula (I). A spring constant for yielding the elastic energy of 0.4 J/cm^2 was 0.569 N/mm. In order to determine the availability, a Geiger-Muller (GM) counter tube was used to count radiant rays, and the measurement result was applied to a previously prepared calibration curve to determine an initially coated quantity and a quantity remaining on the micro-needle device peeled after puncture. Then, the remaining quantity was divided by the initially coated quantity to determine the availability.

B1: 14C-OVA (protein, UniProt P01012 2-386, looked up)
Ovalbumin: GSIGAASMEFCFDVFKELKVHHANENIFYCPIAIMSALAMVYLGAKDSTRTQINKVVRFDKLPGFGDSIEAQCGTSVNVHSSLRDILNQITKPNDVYSFSLASRLYAEERYPILPEYLQCVKELYRGGLEPINFQTAADQARELINSWVESQTNGIIRNVLQPSSVDSQTAMVLVNAIVFKGLWEKAFKDEDTQAMPFRVTEQESKPVQMMYQIGLFRVASMASEKMKILELPFASGTMSMLVLLPDEVSGLEQLESIINFEKLTEWTSSNVMEERKIKVYLPRMKMEEKYNLTSVLMAMGITDVFSSSANLSGISSAESLKISQAVHAAHAEINEAGREVVGSAEAGVDAASVSEEFRADHPFLFCIKHIATNAVLFFGRCVSP
modifications: 14C radiolabel
notes: 14C-OVA coated on the micro-needles with pullulan as coating carrier
B1: the availability was 38% (impact 0.4 J/cm^2 given once); 42% (impact 0.4 J/cm^2 once, then pushed one minute at 1 kg/patch); 58% (impact 0.4 J/cm^2 once, then pushed one minute at 3 kg/patch).
